# Test results as given in the supplement of paper PMC7877785.
# ± gives the uncertainty stated by the source.
# Test: self-splicing fitness, log relative to wild type (ln ratio); higher = more splicing; Tetrahymena group I intron in knt gene, E. coli kanamycin selection, DiMSum; sequences stand for … in CUCUCU…GGAGGGAAAAGUUAUCAGGCAUGCACCUGGUAGCUAGUCUUUAAACCAAUAGAUUGCAUCGGUUUAAAAGGCAAGACCGUCAAAUUGCGGGAAAGGGGUCAACAGCCGUUCAGUACCAAGUCUCAGGGGAAACUUUGAGAUGGCCUUGCAAAGGGUAUGGUAAUAAGCUGACGGACAUGGUCCUAACCACGCAGCCAAGUCCUAAGUCAACAGAUCUUCUGUUGAUAUGGAUGCAGUUCACAGACUAAAUGUCGGUCGGGGAAGAUGUAUUCUUCUCAUAAGAUAUAGUCGGACCUCUCCUUAAUGGGAGCUAGCGGAUGAAGUGAUGCAACACUGGAGCCGCUGGGAACUAAUUUGUAUGCGAAAGUAUAUUGAUUAGUUUUGGAGUACUCGUGGUCG
# Procedure, shortened: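 Pooled colonies went to amplicon sequencing on an Illumina HiSeq 2500 after six replicate transformations. The plates were LB agar with 100 μg/mL carbenicillin, 50 μM IPTG and 0.2% rhamnose, with or without 25 μg/mL kanamycin, incubated overnight at 37°C or 30°C. The E. coli BL21(DE3) library had all eight P1ex-region intron nucleotides randomised, the intron placed in the knt kanamycin-resistance gene on pET-22b(+). DiMSum fitness is the error-weighted combination of replicate fold changes, kanamycin against none, normalised to wild type.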
Sequence,self-splicing fitness (ln) (30 °C),self-splicing fitness (ln) (37 °C)
GGCGAGCAAUAUUACGGGUC,-1.2 ± 0.26,-1.81 ± 0.35
AGUUAGCAAUAUUACGGGGA,-1.84 ± 0.17,-3.12 ± 0.19
CAUCAGCAAUAUUACGAUCC,-1.56 ± 0.12,-0.817 ± 0.16
CAGGAGCAAUAUUACGUAUG,-2.27 ± 0.082,-1.5 ± 0.11
UGUGAGCAAUAUUACGUUAA,-2.97 ± 0.31,-2.44 ± 0.37
AGCAAGCAAUAUUACGUCGU,-1.72 ± 0.12,-0.897 ± 0.16
CGAUAGCAAUAUUACGGCGG,-0.197 ± 0.077,0.211 ± 0.1
AGGUAGCAAUAUUACGUUGC,-3.874 ± 0.031,-3.06 ± 0.047
CCAGAGCAAUAUUACGUGCC,-3.42 ± 0.38,-2.76 ± 0.32
CAAAAGCAAUAUUACGCCGA,-2.91 ± 0.23,-2.49 ± 0.25
UUAAAGCAAUAUUACGGCCG,0.199 ± 0.14,0.0811 ± 0.16
AAUAAGCAAUAUUACGGUAU,-2.05 ± 0.099,-1.04 ± 0.13
ACAAAGCAAUAUUACGGUUG,-2.44 ± 0.07,-1.89 ± 0.09
UGGAAGCAAUAUUACGGACC,-0.695 ± 0.088,-0.372 ± 0.11
GGUCAGCAAUAUUACGUGAG,0.0154 ± 0.061,0.241 ± 0.085
UACUAGCAAUAUUACGGACA,-0.57 ± 0.13,-0.47 ± 0.16
AUGAAGCAAUAUUACGUACG,-0.461 ± 0.13,-0.446 ± 0.093
UGUCAGCAAUAUUACGGCUC,-2.5 ± 0.15,-0.587 ± 0.16
CCCAAGCAAUAUUACGUCGC,-3.94 ± 0.28,-2.38 ± 0.16
ACACAGCAAUAUUACGACCG,-0.326 ± 0.077,0.342 ± 0.11
UACCAGCAAUAUUACGCUUC,-3.17 ± 0.23,-2.3 ± 0.24
CUCCAGCAAUAUUACGUCGA,-4.42 ± 0.27,-2.73 ± 0.17
UCAAAGCAAUAUUACGUCUC,-4.01 ± 0.36,-1.5 ± 0.19
CCGGAGCAAUAUUACGCCAA,,-2.53 ± 0.26
CCCUAGCAAUAUUACGCCUC,-3.29 ± 0.27,-3.81 ± 0.31

Sequence,self-splicing fitness (ln) (30 °C),self-splicing fitness (ln) (37 °C)
UGAGAGCAAUAUUACGUGAU,-3.97 ± 0.46,-2.72 ± 0.38
AAGUAGCAAUAUUACGUUCC,-1.67 ± 0.16,-0.678 ± 0.16
UCUGAGCAAUAUUACGUGCU,-3.52 ± 0.4,
CUCUAGCAAUAUUACGCUGU,-3.07 ± 0.31,-3.24 ± 0.29
AUUGAGCAAUAUUACGAAAA,-2.45 ± 0.41,
ACUUAGCAAUAUUACGGCUG,-1.32 ± 0.062,-0.174 ± 0.082
GAUAAGCAAUAUUACGCCUA,-0.016 ± 0.19,-0.316 ± 0.19
GAUCAGCAAUAUUACGUUCG,-1.33 ± 0.063,0.136 ± 0.073
CAUCAGCAAUAUUACGUACC,-2.74 ± 0.3,-1.63 ± 0.28
UUCCAGCAAUAUUACGUUCG,-2.67 ± 0.16,-1.7 ± 0.23
UCUUAGCAAUAUUACGAUAU,,-1.78 ± 0.38
GUUCAGCAAUAUUACGCAUG,-0.538 ± 0.1,-1.02 ± 0.13
UGGGAGCAAUAUUACGACCU,-0.992 ± 0.41,-0.238 ± 0.46
GUCAAGCAAUAUUACGGUAU,-1.54 ± 0.075,-0.662 ± 0.085
GAUAAGCAAUAUUACGCGAG,-1.04 ± 0.073,-0.376 ± 0.079
GUCUAGCAAUAUUACGACGC,-0.0791 ± 0.12,0.364 ± 0.14
GUACAGCAAUAUUACGUAGU,-2.84 ± 0.11,-2.08 ± 0.14
GUACAGCAAUAUUACGCCAC,-1.49 ± 0.39,
ACCCAGCAAUAUUACGCGUA,-0.599 ± 0.07,-1.08 ± 0.062
AGCAAGCAAUAUUACGAGCU,-3.42 ± 0.17,-2.15 ± 0.21
UUAUAGCAAUAUUACGAGCA,-2.02 ± 0.17,-1.49 ± 0.17
UACAAGCAAUAUUACGCAUU,-3.38 ± 0.19,-1.63 ± 0.16
UGAUAGCAAUAUUACGCAUA,-2.13 ± 0.19,-0.977 ± 0.16
CGAAAGCAAUAUUACGCUAC,-2.53 ± 0.3,
UAUUAGCAAUAUUACGACGG,-0.886 ± 0.35,0.0207 ± 0.33
